According to patent US20190218277A1 (Chugai, published 2019):

B1: DG_3CH1000-SG1095/3CL012-SK1 (antibody, human IgG1, kappa, L234A L235A)
heavy: QVQLVQSGPDVEKPGASVKVSCKASGYTFTSYYMHWVRQAPGQGLEWMGVINPRGGSRRSAQKFQGRITMTRDTSTSTVYMELSSLRSEDTAVYYCARGGRALFYDSYTTPFDGGSWWFDPWGQGSLVTVSSASTKGPSVFPLAPSSKSTSGGTAALGCLVKDYFPEPVTVSWNSGALTSGVHTFPAVLQSSGLYSLSSVVTVPSSSLGTQTYICNVNHKPSNTKVDKRVEPKSCDKTHTCPPCPAPEAAGGPSVFLFPPKPKDTLMISRTPEVTCVVVDVSHEDPEVKFNWYVDGVEVHNAKTKPREEQYNSTYRVVSVLTVLHQDWLNGKEYKCKVSNAALPAPISKTISKAKGQPREPQVYTLPPSREEMTKNQVSLTCLVKGFYPSDIAVEWESNGQPENNYKTTPPVLDSDGSFFLYSKLTVDKSRWQQGNVFSCSVMHEALHNHYTQKSLSLSP
light: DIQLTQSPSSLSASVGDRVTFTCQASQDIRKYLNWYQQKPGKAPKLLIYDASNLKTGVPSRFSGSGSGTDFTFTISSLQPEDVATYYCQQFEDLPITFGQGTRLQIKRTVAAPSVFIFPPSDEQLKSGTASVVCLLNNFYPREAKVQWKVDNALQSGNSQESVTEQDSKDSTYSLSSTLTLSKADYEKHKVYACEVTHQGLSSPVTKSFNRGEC
B2: DG_3CH1000-SG1095/3CL119-SK1 (antibody)
heavy: QVQLVQSGPDVEKPGASVKVSCKASGYTFTSYYMHWVRQAPGQGLEWMGVINPRGGSRRSAQKFQGRITMTRDTSTSTVYMELSSLRSEDTAVYYCARGGRALFYDSYTTPFDGGSWWFDPWGQGSLVTVSSASTKGPSVFPLAPSSKSTSGGTAALGCLVKDYFPEPVTVSWNSGALTSGVHTFPAVLQSSGLYSLSSVVTVPSSSLGTQTYICNVNHKPSNTKVDKRVEPKSCDKTHTCPPCPAPEAAGGPSVFLFPPKPKDTLMISRTPEVTCVVVDVSHEDPEVKFNWYVDGVEVHNAKTKPREEQYNSTYRVVSVLTVLHQDWLNGKEYKCKVSNAALPAPISKTISKAKGQPREPQVYTLPPSREEMTKNQVSLTCLVKGFYPSDIAVEWESNGQPENNYKTTPPVLDSDGSFFLYSKLTVDKSRWQQGNVFSCSVMHEALHNHYTQKSLSLSP
light: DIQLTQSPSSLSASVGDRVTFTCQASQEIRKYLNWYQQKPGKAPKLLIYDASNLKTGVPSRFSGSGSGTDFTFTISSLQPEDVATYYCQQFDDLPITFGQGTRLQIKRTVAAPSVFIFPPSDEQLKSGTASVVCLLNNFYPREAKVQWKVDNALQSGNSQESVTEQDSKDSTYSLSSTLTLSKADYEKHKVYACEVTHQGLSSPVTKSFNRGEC
B3: DG_3CH1000-SG1095/3CL-SK1 (antibody, human IgG1, kappa, L234A L235A)
heavy: QVQLVQSGPDVEKPGASVKVSCKASGYTFTSYYMHWVRQAPGQGLEWMGVINPRGGSRRSAQKFQGRITMTRDTSTSTVYMELSSLRSEDTAVYYCARGGRALFYDSYTTPFDGGSWWFDPWGQGSLVTVSSASTKGPSVFPLAPSSKSTSGGTAALGCLVKDYFPEPVTVSWNSGALTSGVHTFPAVLQSSGLYSLSSVVTVPSSSLGTQTYICNVNHKPSNTKVDKRVEPKSCDKTHTCPPCPAPEAAGGPSVFLFPPKPKDTLMISRTPEVTCVVVDVSHEDPEVKFNWYVDGVEVHNAKTKPREEQYNSTYRVVSVLTVLHQDWLNGKEYKCKVSNAALPAPISKTISKAKGQPREPQVYTLPPSREEMTKNQVSLTCLVKGFYPSDIAVEWESNGQPENNYKTTPPVLDSDGSFFLYSKLTVDKSRWQQGNVFSCSVMHEALHNHYTQKSLSLSP
light: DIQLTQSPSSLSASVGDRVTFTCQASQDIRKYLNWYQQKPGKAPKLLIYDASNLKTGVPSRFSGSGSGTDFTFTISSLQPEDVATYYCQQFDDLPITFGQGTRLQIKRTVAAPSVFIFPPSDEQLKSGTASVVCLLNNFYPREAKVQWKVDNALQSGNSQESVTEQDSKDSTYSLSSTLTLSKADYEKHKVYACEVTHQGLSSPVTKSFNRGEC
B4: DG_3CH1046-SG182/3CL012-SK1 (antibody, V domains shown)
VH: QVQLVQSGAEVKKPGASVKVSCKASGYTFTSYYMHWVRQAPGQGLEWMGVINPRGGSRRSAQKFQGRVTMTRDTSTSTVYMELSSLRSEDTAVYYCARGGRALFYDSYTTPFDGGSWWFDPWGQGSLVTVSS
VL: DIQLTQSPSSLSASVGDRVTFTCQASQDIRKYLNWYQQKPGKAPKLLIYDASNLKTGVPSRFSGSGSGTDFTFTISSLQPEDVATYYCQQFEDLPITFGQGTRLQIKR
B5: DG_3CH1046-SG182/3CL119-SK1 (antibody, V domains shown)
VH: QVQLVQSGAEVKKPGASVKVSCKASGYTFTSYYMHWVRQAPGQGLEWMGVINPRGGSRRSAQKFQGRVTMTRDTSTSTVYMELSSLRSEDTAVYYCARGGRALFYDSYTTPFDGGSWWFDPWGQGSLVTVSS
VL: DIQLTQSPSSLSASVGDRVTFTCQASQEIRKYLNWYQQKPGKAPKLLIYDASNLKTGVPSRFSGSGSGTDFTFTISSLQPEDVATYYCQQFDDLPITFGQGTRLQIKR
B6: DG_3CH1046-SG182/3CL633-SK1 (antibody, V domains shown)
VH: QVQLVQSGAEVKKPGASVKVSCKASGYTFTSYYMHWVRQAPGQGLEWMGVINPRGGSRRSAQKFQGRVTMTRDTSTSTVYMELSSLRSEDTAVYYCARGGRALFYDSYTTPFDGGSWWFDPWGQGSLVTVSS
VL: DIQLTQSPSSLSASVGDRVTITCQASQDIRKYLNWYQQKPGKAPKLLIYDASNLKTGVPSRFSGSGSGTDFTLTISSLQPEDVATYYCQQFDDLPITFGQGTRLQIKR
B7: DG_3CH1046-SG182/3CL-SK1 (antibody, V domains shown)
VH: QVQLVQSGAEVKKPGASVKVSCKASGYTFTSYYMHWVRQAPGQGLEWMGVINPRGGSRRSAQKFQGRVTMTRDTSTSTVYMELSSLRSEDTAVYYCARGGRALFYDSYTTPFDGGSWWFDPWGQGSLVTVSS
VL: DIQLTQSPSSLSASVGDRVTFTCQASQDIRKYLNWYQQKPGKAPKLLIYDASNLKTGVPSRFSGSGSGTDFTFTISSLQPEDVATYYCQQFDDLPITFGQGTRLQIKR
B8: DG_3CH1047-SG182/3CL633-SK1 (antibody, V domains shown)
VH: QVQLVQSGPDVEKPGASVKVSCKASGYTFTSYYMHWVRQAPGQGLEWMGVINPRGGSRRSAQKFQGRITMTRDTSTSTVYMELSSLRSEDTAVYYCARGGEALFYDSYTTPFDGGSWWFDPWGQGSLVTVSS
VL: DIQLTQSPSSLSASVGDRVTITCQASQDIRKYLNWYQQKPGKAPKLLIYDASNLKTGVPSRFSGSGSGTDFTLTISSLQPEDVATYYCQQFDDLPITFGQGTRLQIKR
B9: DG_3CH1047-SG182/3CL666-SK1 (antibody, V domains shown)
VH: QVQLVQSGPDVEKPGASVKVSCKASGYTFTSYYMHWVRQAPGQGLEWMGVINPRGGSRRSAQKFQGRITMTRDTSTSTVYMELSSLRSEDTAVYYCARGGEALFYDSYTTPFDGGSWWFDPWGQGSLVTVSS
VL: DIQLTQSPSSLSASVGDRVTITCQASQEIRKYLNWYQQKPGKAPKLLIYDASNLKTGVPSRFSGSGSGTDFTLTISSLQPEDVATYYCQQFDDLPITFGQGTRLQIKR
B10: DG_3CH1047-SG1095/3CL012-SK1 (antibody, human IgG1, kappa, L234A L235A)
heavy: QVQLVQSGPDVEKPGASVKVSCKASGYTFTSYYMHWVRQAPGQGLEWMGVINPRGGSRRSAQKFQGRITMTRDTSTSTVYMELSSLRSEDTAVYYCARGGEALFYDSYTTPFDGGSWWFDPWGQGSLVTVSSASTKGPSVFPLAPSSKSTSGGTAALGCLVKDYFPEPVTVSWNSGALTSGVHTFPAVLQSSGLYSLSSVVTVPSSSLGTQTYICNVNHKPSNTKVDKRVEPKSCDKTHTCPPCPAPEAAGGPSVFLFPPKPKDTLMISRTPEVTCVVVDVSHEDPEVKFNWYVDGVEVHNAKTKPREEQYNSTYRVVSVLTVLHQDWLNGKEYKCKVSNAALPAPISKTISKAKGQPREPQVYTLPPSREEMTKNQVSLTCLVKGFYPSDIAVEWESNGQPENNYKTTPPVLDSDGSFFLYSKLTVDKSRWQQGNVFSCSVMHEALHNHYTQKSLSLSP
light: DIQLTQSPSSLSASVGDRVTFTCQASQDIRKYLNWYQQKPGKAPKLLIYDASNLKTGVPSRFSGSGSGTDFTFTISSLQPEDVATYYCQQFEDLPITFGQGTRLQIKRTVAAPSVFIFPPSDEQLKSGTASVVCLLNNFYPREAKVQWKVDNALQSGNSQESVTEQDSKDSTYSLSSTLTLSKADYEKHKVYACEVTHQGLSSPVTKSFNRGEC
B11: DG_3CH1047-SG1095/3CL119-SK1 (antibody)
heavy: QVQLVQSGPDVEKPGASVKVSCKASGYTFTSYYMHWVRQAPGQGLEWMGVINPRGGSRRSAQKFQGRITMTRDTSTSTVYMELSSLRSEDTAVYYCARGGEALFYDSYTTPFDGGSWWFDPWGQGSLVTVSSASTKGPSVFPLAPSSKSTSGGTAALGCLVKDYFPEPVTVSWNSGALTSGVHTFPAVLQSSGLYSLSSVVTVPSSSLGTQTYICNVNHKPSNTKVDKRVEPKSCDKTHTCPPCPAPEAAGGPSVFLFPPKPKDTLMISRTPEVTCVVVDVSHEDPEVKFNWYVDGVEVHNAKTKPREEQYNSTYRVVSVLTVLHQDWLNGKEYKCKVSNAALPAPISKTISKAKGQPREPQVYTLPPSREEMTKNQVSLTCLVKGFYPSDIAVEWESNGQPENNYKTTPPVLDSDGSFFLYSKLTVDKSRWQQGNVFSCSVMHEALHNHYTQKSLSLSP
light: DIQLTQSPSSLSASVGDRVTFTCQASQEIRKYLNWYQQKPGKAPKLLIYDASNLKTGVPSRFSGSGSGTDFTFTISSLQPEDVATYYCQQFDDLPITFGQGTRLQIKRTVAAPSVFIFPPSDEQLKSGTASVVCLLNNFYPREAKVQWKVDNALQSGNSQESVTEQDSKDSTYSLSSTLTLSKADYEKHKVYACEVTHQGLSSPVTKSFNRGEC
B12: DG_3CH1049-SG182/3CL012-SK1 (antibody, V domains shown)
VH: QVQLVQSGAEVKKPGASVKVSCKASGYTFTSYYMHWVRQAPGQGLEWMGVINPRGGSRRSAQKFQGRVTMTRDTSTSTVYMELSSLRSEDTAVYYCARGGEALFYDSYTTPFDGGSWWFDPWGQGSLVTVSS
VL: DIQLTQSPSSLSASVGDRVTFTCQASQDIRKYLNWYQQKPGKAPKLLIYDASNLKTGVPSRFSGSGSGTDFTFTISSLQPEDVATYYCQQFEDLPITFGQGTRLQIKR
B13: DG_3CH1049-SG182/3CL119-SK1 (antibody, V domains shown)
VH: QVQLVQSGAEVKKPGASVKVSCKASGYTFTSYYMHWVRQAPGQGLEWMGVINPRGGSRRSAQKFQGRVTMTRDTSTSTVYMELSSLRSEDTAVYYCARGGEALFYDSYTTPFDGGSWWFDPWGQGSLVTVSS
VL: DIQLTQSPSSLSASVGDRVTFTCQASQEIRKYLNWYQQKPGKAPKLLIYDASNLKTGVPSRFSGSGSGTDFTFTISSLQPEDVATYYCQQFDDLPITFGQGTRLQIKR
B14: DG_3CH1049-SG182/3CL-SK1 (antibody, V domains shown)
VH: QVQLVQSGAEVKKPGASVKVSCKASGYTFTSYYMHWVRQAPGQGLEWMGVINPRGGSRRSAQKFQGRVTMTRDTSTSTVYMELSSLRSEDTAVYYCARGGEALFYDSYTTPFDGGSWWFDPWGQGSLVTVSS
VL: DIQLTQSPSSLSASVGDRVTFTCQASQDIRKYLNWYQQKPGKAPKLLIYDASNLKTGVPSRFSGSGSGTDFTFTISSLQPEDVATYYCQQFDDLPITFGQGTRLQIKR

Columns and labels:
[1] = molecular target: T1, Recombinant soluble E protein (0.8E-His) from DENV-2 (DENV-2, UniProt P14340 281-675); test: SPR, Biacore T200
T1 construct: also called DENV-2 E protein; DV2

[2] = molecular target: T2, Recombinant soluble E protein (0.8E-His) from DENV-4 (DENV-4, UniProt P09866 280-674); test: SPR, Biacore T200
T2 construct: also called DENV-4 E protein; DV4

[3] = molecular target: T3, Recombinant soluble E protein (0.8E-His) from DENV-3 (DENV-3, UniProt P27915 281-673)
T3 construct: also called DENV-3 E protein; DV3

[4] = molecular target: T4, Recombinant soluble E protein (0.8E-His) from DENV-1 (DENV-1, UniProt P27909 281-675)
T4 construct: also called DENV-1 E protein; DV1

Binder | binding result [1] | binding result [2] | Kd [3] | Kd [4]
B1 | binds | binds | 0.959 pM | 1830 pM
B2 | binds | binds | 0.0428 pM | 1920 pM
B3 | binds | binds | 16.8 pM | 1800 pM
B4 | binds | binds | 0.145 pM | 1920 pM
B5 | binds | binds | 2.73 pM | 1530 pM
B6 | binds | binds | 0.201 pM | 1640 pM
B7 | binds | binds | 0.213 pM | 1910 pM
B8 | binds | binds | 0.437 pM | 956 pM
B9 | binds | binds | 42 pM | 982 pM
B10 | binds | binds | 3.17 pM | 2210 pM
B11 | binds | binds | 3.79 pM | 2230 pM
B12 | binds | binds | 1.05 pM | 2260 pM
B13 | binds | binds | 5.09 pM | 1720 pM
B14 | binds | binds | 2.39 pM | 2140 pM
